In publication PMC4671672:

How the values were obtained:
[1] = biological target: FLAG-NKX2-5 (mouse NKX2-5, pEF-FLAG-NKX2-5) (mouse) (UniProt P42582); experiment: co-IP; protein extracts of COS-1 cells expressing FLAG-NKX2-5 (50 ug) and of COS-1 cells expressing GATA4 (30-84 ug) mixed; agarose bound anti-FLAG M2 antibody, overnight at +4°C in lysis buffer (20 mM Tris pH 7.5, 150 mM NaCl, 1 mM EDTA, 1 mM EGTA, 1% Triton X-100, 2.5 mM sodium pyrophosphate); immunoblot with anti-GATA4 and anti-NKX2-5; bands quantified, unspecific binding subtracted, normalized to input and to …
UniProt P42582, sequence (P42582 whole entry): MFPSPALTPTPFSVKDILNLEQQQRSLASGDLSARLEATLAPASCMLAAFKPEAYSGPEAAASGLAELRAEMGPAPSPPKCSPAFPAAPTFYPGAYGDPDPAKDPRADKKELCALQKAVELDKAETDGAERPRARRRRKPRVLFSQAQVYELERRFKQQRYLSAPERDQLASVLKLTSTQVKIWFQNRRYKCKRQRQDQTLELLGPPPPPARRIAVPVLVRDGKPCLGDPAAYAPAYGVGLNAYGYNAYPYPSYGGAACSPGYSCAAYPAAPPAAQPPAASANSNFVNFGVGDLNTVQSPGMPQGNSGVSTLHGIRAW

[2] = biological target: FLAG-NKX2-5 (mouse NKX2-5, pEF-FLAG-NKX2-5) (mouse) (UniProt P42582)

mouse GATA4 M298Y (natural protein) was tested, and the percent decrease of binding vs wtGATA4 [1] was 62%.

mouse GATA4 R283A (natural protein) gave a percent decrease of binding vs wtGATA4 [1] of 84%.

Substance mouse GATA4 N272S (natural protein) has a GATA4-NKX2-5 transcriptional synergy, 3xNKE luciferase reporter, COS-1 cells; reduction vs wtGATA4 [2] of 65%.

mouse GATA4 V217Y (natural protein) gave a GATA4-NKX2-5 transcriptional synergy, 3xNKE luciferase reporter, COS-1 cells; vs wtGATA4-NKX2-5 [2] of 146% and a percent increase of binding vs wtGATA4 [1] of 235%.

mouse GATA4 R319C (natural protein) showed a percent decrease of binding vs wtGATA4 [1] of 89%.

Work on mouse GATA4 K299A (natural protein) yielded a percent decrease of binding vs wtGATA4 [1] of 61%.

With mouse GATA4 R264A (natural protein) the percent decrease of binding vs wtGATA4 [1] was 36%.

For mouse GATA4 N272D (natural protein), the GATA4-NKX2-5 transcriptional synergy, 3xNKE luciferase reporter, COS-1 cells; reduction vs wtGATA4 [2] was 79%.

For mouse GATA4 Q274H (natural protein), the percent decrease of binding vs wtGATA4 [1] was 47%.

mouse GATA4 R283Q (natural protein) was tested, and the percent decrease of binding vs wtGATA4 [1] was 91%.
